The values that follow come from patent publication US20160145299A1 (CENTRE NATIONAL DE LA RECHERCHE SCIENTIFIQUE, published 2016).

Where no end group is shown, it is not given here.

This assay addresses cdk2/cyclin A complex (UniProt P24941 1-298; P20248 1-432). As to the kind of experiment: cell-based or functional assay.

For the molecule KKQVRMAHLVLT (also: fluorescent label Cy5 or FITC, position not given here) [Peptide targeting CDK/Cyclin C4: KKQVRMAHLVLT (SEQ ID No: 8)], the “IC50 of cell proliferation, Hela, C4 delivered with Short6” value was 80 nM; the “IC50 of cell proliferation, Hela, C4 delivered with short7” value came to 45 nM; the “IC50 of cell proliferation, Hela, C4 delivered with short11” value came out at 150 nM; the “IC50 of cell proliferation, MCF7, C4 delivered with Short6” value worked out at 50 nM. Moreover, the “IC50 of cell proliferation, MCF7, C4 delivered with short7” value came out at 80 nM and the “IC50 of cell proliferation, MCF7, C4 delivered with short11” value came out at 200 nM.
